In the supplement of paper PMC12764529:
± gives the half width of the 95% confidence interval.

Columns and labels:
[1] = folding stability dG unfold from trypsin proteolysis; higher = more stable
Method in brief: (§1)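 Bayesian fitting of sequencing counts gave K50 for each design. Unfolding free energy followed by setting this against a sequence-predicted unfolded-state K50 and a shared folded-state K50, either per protease or with trypsin and chymotrypsin combined. The designs, under 80 residues and lacking cysteine, were digested in a PA-tagged cDNA display format at 11 threefold-diluted protease concentrations and without protease, and only those with AlphaFold2 dimer inter-PAE above 15 were kept.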

[2] = folding stability dG unfold from chymotrypsin proteolysis; higher = more stable
Method in brief: as §1

[3] = folding stability dG unfold (combined trypsin and chymotrypsin); higher = more stable
Method in brief: as §1

Row | Sequence | folding stability dG unfold [1] | folding stability dG unfold [2] | folding stability dG unfold [3]
1 | SPSTTVETTVTIPYTYRLPDGTVLEYNLTISVTASLTNGGISTGDLKSAIDTALAAANIPPGPPDLPLLLRS [r1_175_JUSTAS] | 0.738 ± 0.13 kcal/mol | 2.31 ± 0.098 kcal/mol | 1.83 ± 0.096 kcal/mol
2 | SPTIKASYDPETGVLTVYVKLRDPETGEPIPAEAVAAKIKELFPDAEILDIEPNPDGYVKITVKVAPDAVSA [r9_87_TrMRF] | 3.48 ± 0.11 kcal/mol | 3.79 ± 0.086 kcal/mol | 3.72 ± 0.071 kcal/mol
3 | SPTQTITLTLPDRPVTVPLTAYPETGYVEITVTVTYPTGTKTYTFTVKAKSFEEVLAELSKLPEDFDINPSA [r9_713_TrMRF] | 1.83 ± 0.073 kcal/mol | 1.81 ± 0.088 kcal/mol | 1.85 ± 0.052 kcal/mol
4 | SPTVTETTLIASEEDPSSGVKTELTETTTIVKVGGTTTEVTTTTTTLTPEEDGKGTSTVTPSTTTTPIPASA [r9_375_JUSTAS] | 0.84 ± 0.079 kcal/mol | 1.45 ± 0.12 kcal/mol | 1.29 ± 0.12 kcal/mol
5 | SPVKIRIIVPKGMDPEMANFIVKEIMKHLGLPPGAPVEILPWEDLQKNPDVHQALEEAEKEGADIVILIRSA [r9_1147_TrROS] | 3.08 ± 0.14 kcal/mol | 4.16 ± 0.16 kcal/mol | 3.84 ± 0.1 kcal/mol
6 | SPVKWGEEKTYTYPFPDNPNYRIKIKVHVYKDPENGRPYVRMNIEVYNNGKPRKYNINMPVDQLKDLLQFSA [r9_71_TrROS] | 2.22 ± 0.039 kcal/mol | 2.66 ± 0.076 kcal/mol | 2.57 ± 0.21 kcal/mol
7 | SQNGGPKRKVTITIIIVIPPGQRNPDGKPRPSVEELARYLQKELQEQFPGNKDVKIDITIIPLGDPEQIKSA [r9_329_TrROS] | 2.06 ± 0.069 kcal/mol | 2.86 ± 0.15 kcal/mol | 2.33 ± 0.21 kcal/mol
8 | SQVKIHIPFEVEYSPENGNYFFMIRVRYPGKERPIMFPYKDPEQMREWARTIAKELAKENPDNVEIEIWWSA [r9_1148_TrROS] | 2.42 ± 0.038 kcal/mol | 2.83 ± 0.095 kcal/mol | 2.73 ± 0.15 kcal/mol
9 | SRIKISIFRPGKIIPEIPIKVDSVEEAVEKVLEYIRKFPPNAPYYIMIEVEHTDPANGQKQEGTVHIPIKSA [r9_245_TrROS] | 2.22 ± 0.059 kcal/mol | 4 ± 0.048 kcal/mol | 3.39 ± 0.12 kcal/mol
10 | SSAEELARRLAAELAERLPPGARITDVRIERRADGTVTITVTVELPDGRTLTVTITLDLATGEITIEIHPSA [r9_219_TrROS_Hall] | 4.95 ± 0.16 kcal/mol | 4.35 ± 0.26 kcal/mol | 4.89 ± 0.19 kcal/mol
11 | SSEILEKLAKELPDLEPVGVEEEPLPDGGRRLTLVARRPETGTYVRVTVDVPPGGGVASVEVEEVPVSRLSA [r9_274_JUSTAS] | 0.529 ± 0.054 kcal/mol | 2.23 ± 0.033 kcal/mol | 1.77 ± 0.054 kcal/mol
12 | SSKIEASATIEGDVITVTLVADSLSDLLAAIKELAEKLGVSFEILSISYKRLPNGKIIATVTARVKPEDLSA [r9_102_TrMRF] | 3.24 ± 0.056 kcal/mol | 4.65 ± 0.048 kcal/mol | 4.277 ± 0.039 kcal/mol
13 | SSLSIPGATKEEFEEIAEELEKKNPGVKVTVTYDPENGVITITITKPVKDKKGNLIGTETEVITITVTKPSA [r9_378_JUSTAS] | 3.05 ± 0.41 kcal/mol | 2.26 ± 0.072 kcal/mol | 2.41 ± 0.14 kcal/mol
14 | SSMSSSPLGSDPATGTTYYLSVSNNSTTLSTVTPAPVLPISPEELEKIAKELAKKNPKLAKKAKELAEKLKS [r1_330_JUSTAS] | -0.301 ± 0.2 kcal/mol | 0.123 ± 0.25 kcal/mol | -0.0137 ± 0.3 kcal/mol
15 | SSMTLVTVEMEITLRTPEGGSETLKRTFEREVSPDDPAAVEAAVEAAKEEIREAHPDVVEVRVVKVDTALSA [r9_436_JUSTAS] | 4.06 ± 0.089 kcal/mol | 4.459 ± 0.039 kcal/mol | 4.41 ± 0.046 kcal/mol
16 | SSMTTTEKKYTYNDSSISVSTTTLPDGSKLITTPITRKNPDGIDVTETLTTLDKGSGVTPVSPSTSTLNTSA [r9_554_JUSTAS] | -1.24 ± 0.18 kcal/mol | 0.602 ± 0.035 kcal/mol | 0.177 ± 0.069 kcal/mol
17 | SSPIMIKMKDPDDREKIEKAVEEINDETGMSIRPESVDPNGKYTFMINMPPEHQKKILKALREAGNIEIVSA [r9_472_TrROS] | 0.289 ± 0.21 kcal/mol | 1.1 ± 0.15 kcal/mol | 0.874 ± 0.16 kcal/mol
18 | SSPKILTESELKITIPMTDPETGKPINLEVTIPLLVDPATGTVEVLEIKITGPEEVQEILKKLIEKLIKESA [r9_619_JUSTAS] | 2.14 ± 0.23 kcal/mol | 2.15 ± 0.12 kcal/mol | 2.11 ± 0.22 kcal/mol

Row | Sequence | folding stability dG unfold [1] | folding stability dG unfold [2] | folding stability dG unfold [3]
19 | SSSGPKTELITLKYEEPVRSPEEAEARARALAEEIAERTGAPIEVDVEIEYDPETGKAYVTVPVRVLLPDSA [r9_741_JUSTAS] | 1.14 ± 0.037 kcal/mol | 0.124 ± 0.16 kcal/mol | 0.727 ± 0.1 kcal/mol
20 | SSSTVTVTVTFPDGTVVTVDFTGSLAEVEAAVREWVRQYAAEQGLDPREVRVTITFADDGTTRERTLPLRSA [r9_1193_JUSTAS] | 0.921 ± 0.043 kcal/mol | 2.42 ± 0.035 kcal/mol | 2.04 ± 0.086 kcal/mol
21 | SSSVVESSYDPSTGTLTVTVSYDFPPAPPAAATSSTTPVGSNSYTGSGSYTSPAGASSLSSTATGPPTLSSA [r9_780_JUSTAS] | 1.43 ± 0.031 kcal/mol | 1.15 ± 0.054 kcal/mol | 1.37 ± 0.048 kcal/mol
22 | SSVTIPFKITDPNTTIAEIAERVRELLPESLGELSVTVTFSDGTTLNVTPGENLSKYYSPDDELTITVDAPS [r1_56_JUSTAS] | 1.29 ± 0.034 kcal/mol | 1.23 ± 0.11 kcal/mol | 1.27 ± 0.11 kcal/mol
23 | SSVTLVLEKPLPSGKRLVVVTTLKPEPARGTVRLDVTTTTYTFSKTENGEITTSSTTSTSTETVSPEELLSA [r9_1137_JUSTAS] | 2.53 ± 0.13 kcal/mol | 2.48 ± 0.18 kcal/mol | 2.49 ± 0.29 kcal/mol
24 | STLTLEELKERFPELSEEELEALAERLAALPAPVTVTVEVRPAPPPPVEERELSEEELLEARLRPGERVESA [r9_1024_TrROS_Hall] | 0.624 ± 0.06 kcal/mol | 1.94 ± 0.056 kcal/mol | 1.51 ± 0.098 kcal/mol
25 | STRTLTVVVEAPTLEEALAAAKALAPPGWKVTVTVERREVVDPETGETRTVLVVTVTIEPAPPPPPAEEKSA [r9_962_TrROS_Hall] | 2.11 ± 0.028 kcal/mol | 3.16 ± 0.083 kcal/mol | 2.86 ± 0.091 kcal/mol
26 | SVDPAKEKVVLRFTVTFPVPPELGPITADELAALVREILEAFGYEIVSVTVTVEGDRVTVTVEAVFDKRGSA [r9_1134_TrMRF] | 3.76 ± 0.11 kcal/mol | 5.21 ± 0.086 kcal/mol | 5.01 ± 0.091 kcal/mol
27 | SVEELAKKLAELFPNVKVTVTEEEIDGKKVKTIRIENKKTGKTYEITVLPNGEILITDSNGKKFSLEELLSA [r9_1176_TrROS_Hall] | 4.26 ± 0.27 kcal/mol | 4.91 ± 0.31 kcal/mol | 4.86 ± 0.25 kcal/mol
28 | SVKVEVSISYDPETNTITITVRVYYKDENGNWTEVATITITIKIELPPPPPKTITLKPGVKTKEEAKKALSA [r9_888_TrROS_Hall] | 2.63 ± 0.28 kcal/mol | 3.54 ± 0.26 kcal/mol | 3.01 ± 0.23 kcal/mol
29 | SVNPATQVVTVTREVTYPVPPSQGPISEEEAREAVEAELAARGWTLREVRVEYEGDTVTVTAVAERPAAASA [r9_1134_JUSTAS] | 1.04 ± 0.018 kcal/mol | 1.13 ± 0.053 kcal/mol | 1.11 ± 0.038 kcal/mol
30 | SVPADAKPGVVPERVVLVIVVPPELLDEDGRLRPENLEIAAGEAAEAARKLREAFPDVPIEDVGVVVVEGSA [r9_943_TrMRF] | 0.869 ± 0.02 kcal/mol | 0.466 ± 0.029 kcal/mol | 0.705 ± 0.046 kcal/mol
31 | SVPPNAPPGMKPKRVEIFIFIPPELYDKDGKISPEQLKKAKGMAKMIKLRLREQYPGYGIDDVKVHIMPGSA [r9_943_TrROS] | 2.76 ± 0.052 kcal/mol | 3.303 ± 0.022 kcal/mol | 3.14 ± 0.097 kcal/mol
32 | SVPYGVTDVTFEPEKNTATVTAPRPDPSAPVAVGDKKGESVSVTSEVDTAAGTLTVTVPTTAPGNVTVDVPS [r1_138_JUSTAS] | 0.57 ± 0.041 kcal/mol | -0.934 ± 0.54 kcal/mol | 0.133 ± 0.12 kcal/mol
33 | SVYNPNNPNIPTKLTVTIPVPEEVVAAGDTAAAEAAAEATAAALAPEGWRVTSVSFPRETGTMTVTLTRPSA [r9_75_JUSTAS] | 1.32 ± 0.022 kcal/mol | 1.16 ± 0.11 kcal/mol | 1.33 ± 0.063 kcal/mol
34 | SWMFMIEVHDPKNGKERTVPINMPKEQVLDQIREAQEKGPRIEIWGIPPNAIKEIAEEAKLPVEIHPMPPSA [r9_1207_TrROS] | 0.012 ± 0.24 kcal/mol | 0.409 ± 0.15 kcal/mol | 0.148 ± 0.14 kcal/mol
35 | SWNLRLEIEEVEIEPSDNWIIIMVRVEIEGRNPDDPNKPRPVFEVWVMIPIPLPPPKPKPDPDDPAAAKDSA [r9_357_TrROS] | 2.29 ± 0.25 kcal/mol | 3.5 ± 0.15 kcal/mol | 2.8 ± 0.43 kcal/mol
36 | SYSIDTSKIEEAAAALPPNAVAELELTANVPESGFTLKLKVTITVDPAGKVTRITFTDPATGKKIATVDVGS [r1_165_JUSTAS] | 2.47 ± 0.069 kcal/mol | 1.52 ± 0.11 kcal/mol | 2.1 ± 0.12 kcal/mol
